# Assay: yeast display, Sf9 membrane polyspecificity reagent, FACS + sequencing; frameworks hold sequencing errors
# Outline: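 Nanobodies from a synthetic yeast display library (Saccharomyces cerevisiae BJ5465), induced 36–48 hours with galactose, were stained 1 hour at 4 °C with 10% biotinylated, detergent-solubilized Sf9 membrane reagent, enriched on streptavidin microbeads, then FACS-sorted. Anti-HA (expression) and streptavidin (reagent binding) fluorescence set low and high (top ~1%) gates. Polyreactivity labels come from the gate of origin. Genes were colony-PCR amplified, MiSeq 2 × 250 sequenced and filtered by CDR length.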
row,Sequence,polyreactivity (PSR sort gate)
1,QVQLVESGGGLVQAGGSLRLSCAASGSIFRINTMGWYLQAPGKERELVAAISFSGTRTYYADSVKGRFTISRDNAKNTVYLQMNSLKPEDTAVYYCAAAGRYTYRTLRDYWGQGTQVTVSS,high polyreactivity
2,QVQLVESGGGLVQAGGSLRLSCAASGSIFRINVMGWYRQAPGKERELVAAITRGDSTNYADSVKGRFTISRDNAKNSVYLQMNSLKPEDTAVYYCAAGYYYYLRDHDYWGQGTQVTVSS,low polyreactivity
3,QVQLVESGGGLVQAGGSLRLSCAASGSIFRIYAMGWYRQAPGKERELVAAISFSTGSRTYYADSVKGRFTISRDNAKNTVYLQMNSLKPEDTAVYYCNAESYYDYNYWGQGNQVTVSS,low polyreactivity
4,QVQLVESGGGLVQAGGSLRLSCAASGSIFRIYAMGWYRQAPGKERELVAAISRGSTRTYYADSVKGRFTISRDNAKNTVYLQMNSLKPEDTAVYYCNKAYPPEYDYWGQGTQVTVSS,high polyreactivity
5,QVQLVESGGGLVQAGGSLRLSCAASGSIFRIYRMGWYRQAPGKERELVAAISYSGGNTYYADSVKGRFTISRDNAKNTVYLQMNSLKPEDTAVYYCAAVPYRKHSYPFRLNYWGQGTQVTVSS,high polyreactivity
6,QVQLVESGGGLVQAGGSLRLSCAASGSIFRKYAMGWYRQAPGKEREFVAVITTDGSTNYADSVKRRFTISRDNAKNTVYLQMNSLKPEDTAVYYCNAFRSSIGTDNDFWGQGTQVTVSS,low polyreactivity
7,QVQLVESGGGLVQAGGSLRLSCAASGSIFRKYAMGWYRQAPGKERELVAVITTDGSTNYADSVKGRFTISRDNAKNTVNLQMNSLKPEDSAVYYCNAVRSSIGTDNDFWGQGTLVTVSS,low polyreactivity
8,QVQLVESGGGLVQAGGSLRLSCAASGSIFRKYSMGWYRQAPGKERELVAGITGRGGRTYYADSVKGRFTISRDNAKNTVYLQMNSLKPDDTAVYYCAATVSPSYDYWGQGTQVTVSS,high polyreactivity
9,QVQLVESGGGLVQAGGSLRLSCAASGSIFRLYAMGWYRQAPGKERELVAVISYSGGSTYYADSVKGRFTISRDNAKNTVYLQMNSLNPEDTAVYYCAARRRWYGIRNYYWGQGSQVTVSS,high polyreactivity
10,QVQLVESGGGLVQAGGSLRLSCAASGSIFRNAMGWYRQAPGKERELVATISYRGGSTYYADSVKGRFTISRDNAKNTVYLQMNSLKPEDTAVYYCNADSKLVGYNYWGQGTQVTVSS,low polyreactivity
11,QVQLVESGGGLVQAGGSLRLSCAASGSIFRNYAMGLYRQAPGKERELVAAISSRGGTTHYADSVKGRFTISRDNAKNTVYLQMNSLKPEDTAVYYCAADYYLATNPAPLAAGRGYWGQGTQVTVSS,high polyreactivity
12,QVQLVESGGGLVQAGGSLRLSCAASGSIFRPKAMGWYRQAPGKERELVAAINTSDDSTYYADSVKGRFTISRDNAKNSVYLQMNSLKPEDTAVYYCAAEYYAYPYGDYYDYWGQGTQVSVSS,low polyreactivity
13,QVQLVESGGGLVQAGGSLRLSCAASGSIFRPNAMGWYRQAPGTEREFVASISGRVGSTYYADSVKGRFTISRDNAKNTVYLQMNSLKPEDTAVYYCAADSRGGYKRNYWGQGTQVTVSS,high polyreactivity
14,QVQLVESGGGLVQAGGSLRLSCAASGSIFRPYAMGWSRQAPGKERELVAAISWRSGRTYYADSVKGRFTISRDNAKNTVYLQMNSLKPEDTAVYYCAADLASYAYRYDYWGQGTQVTVSS,high polyreactivity
15,QVQLVESGGGLVQAGGSLRLSCAASGSIFRPYAMGWYRPAPGKERELVAAITSGGRTNYADSVKGRFTISRDNAKNTVYLQMNSLKPEDTAVYYCAKTGSYAKIRPNNDYWGQGTQVTVSS,low polyreactivity
16,QVQLVESGGGLVQAGGSLRLSCAASGSIFRPYAMGWYRQAPGKERELVAAISGSGGTTYYADSVKGRFTISRDNAKNTVYLQMNSLKTEETAVYYCAARNFSAFWLGGYDYWGQGTQVTVSS,low polyreactivity
17,QVQLVESGGGLVQAGGSLRLSCAASGSIFRPYAMGWYRQAPGKERELVATITWSGGSTYYADSVKGRFTISRDNAKNTVYLQMNSLKPEDTAVYYCAADPDLLWEYSDGYYGGDGGYWGQGTQVTVSS,low polyreactivity
18,QVQLVESGGGLVQAGGSLRLSCAASGSIFRPYTMGWYRQAPGKERELVAAITGSGGSTYYADSVKGRFTISRDNAKNTVYLQMNSLKPEDTAVYYCNAGWRVWGYSGSYYWFNYWGQGTQVTVSS,high polyreactivity
19,QVQLVESGGGLVQAGGSLRLSCAASGSIFRQNAMGWYRQAPGKERELVAAISSSGGSTYYADSVKGRFTISRDNAKNTVYLQMNSLKPEDTAVYYCAARLRRTQTYSSGRPGDYWGQGTQVTVSS,high polyreactivity
20,QVQLVESGGGLVQAGGSLRLSCAASGSIFRQYAMGWYRQAPGKERELVAAIRRGTSTYYADSVKGRFTISRDNAKNTVYLQMNSLKPEDTAVYYCAKHQHYPHYQPYWSRYDYWGQGTQVTVSS,low polyreactivity
21,QVQLVESGGGLVQAGGSLRLSCAASGSIFRQYAMGWYRQAPGTERELVAAINYSGGNTYYADSVKGRFTISRDNAKNTVYLQMNSLKPEDTAVYYCAADSVRHYWWAYYYWGQGTQVTVSS,low polyreactivity
22,QVQLVESGGGLVQAGGSLRLSCAASGSIFRRNAMGWYRQAPGKARELVATITSSGGSTYYADSVKGRFTISRDNAKNTVYLQMNSLKPEDTAVYDCATDGQSPYYIYYWGQGTQVTVSS,low polyreactivity

row,Sequence,polyreactivity (PSR sort gate)
1,QVQLVESGGGLVQAGGSLRLSCAASGSIFRRNAMGWYRQAPGKERELVAAISQSGGSTYYADSVKGRFTISRDNAKNTVYLQMNSLKPEDTAVYYCAAKHRVYGTRGYGYDYWGQGTQVTVSS,high polyreactivity
2,QVQLVESGGGLVQAGGSLRLSCAASGSIFRRNAMGWYRQAPGKERELVAGISGGGSTYYADSVKGRFTISRDNAKNTVYLQMNSLKPEDTAVYYCSTDKHYRWAGFDYWGQGTQVTVSS,low polyreactivity
3,QVQLVESGGGLVQAGGSLRLSCAASGSIFRRNAMGWYRQAPGKERELVATITSDGSTDYADSVKGRFTISRDNAKNTVYFQMNSLKPEDTAVYYCAVAYLWRPYDFREFDYWGQGTQVTVSS,low polyreactivity
4,QVQLVESGGGLVQAGGSLRLSCAASGSIFRRYAIGWYRQAPGKERELVAAISGRGGSTYYADSVKGRFTISRDNAKNTVYLQMNSLKPEDTAVYYCNADRYYSHYSYYYWGQGTQVTVSS,high polyreactivity
5,QVQLVESGGGLVQAGGSLRLSCAASGSIFRRYAMGWYRQAPGKERELVAAITNGGGSTYYADSVKGRFTISRDNAKNTVYLQMNSLKPEDSAVYYCARRLASNYGAYDYWGQGTQVTVSS,low polyreactivity
6,QVQLVESGGGLVQAGGSLRLSCAASGSIFRRYAMGWYRQAPGKERELVASITSSVGRTYYADSVKGRFTISRDNAKNTVYLQMNSLKPEDTAVYYCAVYVGRWGAGGKGDYWGQGTQVTVSS,low polyreactivity
7,QVQLVESGGGLVQAGGSLRLSCAASGSIFRRYAMGWYRQAPGKESELVAAITWGGGRTYYADSVKGRFTISRDNAKNTVYLQMNSLKPEDTAVYYCNAERSVYASGKSYLYDYWGQGTQVTVSS,high polyreactivity
8,QVQLVESGGGLVQAGGSLRLSCAASGSIFRRYDMGWYRQAPGKERELVAAISSSGGSTYYADSVKGRFTISRDNAKNTVYLQMNSLKPEDTAVYYCAADIYDDDRSEYTEYDYWGQGTQVTVSS,low polyreactivity
9,QVQLVESGGGLVQAGGSLRLSCAASGSIFRRYTMGWYRQAPGKERELVAAISRVGNTNYADSVKGRFTISRDNAKNTVYLQMNSLKPEDTAVYYCAADLYWLLYDEDWYWWEYESDSWGQGTQVTVSS,high polyreactivity
10,QVQLVESGGGLVQAGGSLRLSCAASGSIFRSNAMGWYRQAPGKERELVAVIRSGGTTNYADSVKGRFTISRDNAKNTVYLQMNSLKPEDTAVYYCAAYGAHGGVIVVEGDYWGQGTQVTVSS,low polyreactivity
11,QVQLVESGGGLVQAGGSLRLSCAASGSIFRSNAMGWYRQAPGQERELVAAISRSGGRTYYADSVKGRFTISRDNAKNTVYLQMNSLKPEDTAVYYCAAQVVRSLKYEYWGQGTQLTVSS,high polyreactivity
12,QVQLVESGGGLVQAGGSLRLSCAASGSIFRSYAMGWYRQAPGKERELDAAISRRGSSTYYADSVKGRFTISRDIAKNTVYLQMISLKPEDSAVYYCNRVRYPRVDYWGQGTQVTVSS,high polyreactivity
13,QVQLVESGGGLVQAGGSLRLSCAASGSIFRSYAMGWYRQAPGKERELVASISRRGGSTYYADSVKGRFTISRDNAKNTVYLQMNSLKPEDTAVYYCAADHYHGYWKYDYWGQGTQVTVSS,low polyreactivity
14,QVQLVESGGGLVQAGGSLRLSCAASGSIFRSYAMGWYRQSPGKERELVAAITRSGGSTYYADSVKGRFTISRDNAKNTVDLQMNSLKPEDTAVYYCAAEYYSYTWGWGHGYWGQGTQVTVSS,high polyreactivity
15,QVQLVESGGGLVQAGGSLRLSCAASGSIFRTNAMGWYRQAPGKEREFVASISSDSGNTYYADSVKGRFTISRDNAKNTVYLQMNSLKPEDTAVYYCARRKVRYWSYRAANYYWGQGTQVTVSS,low polyreactivity
16,QVQLVESGGGLVQAGGSLRLSCAASGSIFRTNAMGWYRQAPGKEREYVATISSDSGNTYYADSVKGRFTISRDNAKNTVYLQMNSLKPEDTAVYYCARRKVRYWSYRAANYYWGQGTQVTVSS,low polyreactivity
17,QVQLVESGGGLVQAGGSLRLSCAASGSIFRVNAMGWYRQAPGKERELVAAITDGGITNYADSVKGRFTISRDNAKNTVYLQMNSLKPEETAVYYCAADTDRDFHYVVPTYDYWGQGTQVTVSS,low polyreactivity
18,QVQLVESGGGLVQAGGSLRLSCAASGSIFRVYAMGWYRHAPGKERELVATITSSGGFTYADSVKGRFTISRDNAKNTVYLQMNSLKQEDTAVYYCATVRFGQYWVPSGYSWGYTYDYWGQGTQVTVSS,high polyreactivity
19,QVQLVESGGGLVQAGGSLRLSCAASGSIFRVYAMGWYRQAPGKEREFVAAISYSTGSTYADSVKGRFTISRDNAKNTVYLQMNSLKPEDTAVYYCNARFRYGSRDEYDYWGQGTQVTVSS,low polyreactivity
20,QVQLVESGGGLVQAGGSLRLSCAASGSIFRVYAMGWYRQAPGKERELVAAITRGGSTYADSVKGRFTISRDNAKNTVYLQMNSLKPEDTAVYYCAAQRTLYRSGFDSWGQGTQVTVSS,high polyreactivity
21,QVQLVESGGGLVQAGGSLRLSCAASGSIFRVYAMGWYRQAPGKERELVAVISIAGRTNYADSVKGRFTISRDNAKNTVYLQMNSLKPEDTAVYYCNAEWDLNHLYDSWGQGTQVTVSS,low polyreactivity

# Source: the nanobody polyreactivity screen of Harvey et al. (2022)
